According to patent publication US20260043041A1, “HSL PROTEIN, GENE, VECTOR, CELL, COMPOSITION AND USE THEREOF, AND METHOD FOR IMPROVING HERBICIDE RESISTANCE OF CROPS” (CENTRAL CHINA NORMAL UNIVERSITY, priority 2022, published 2026):

Legend:
[1] = system: Cc1c(C(=O)c2cnn(C)c2O)ccc(S(C)(=O)=O)c1C1=NOCC1; assay: Enzyme kinetic parameters with HPPD inhibitors as substrate (HPLC); format: biochemical, rice; conditions: other: pH 7.0, 30° C., about 20 min
Description: (§1) High Performance Liquid Chromatography (HPLC) was used to test OsHIS1 wild-type protein (the amino acid sequence of OsHIS1 wild-type is shown as SEQ ID NO 2, and the corresponding nucleotide sequence is shown as SEQ ID NO 21), the enzyme kinetic parameters of OsHSL1 wild-type protein and some OsHSL1 mutant proteins with higher reactivity and HPPD inhibitors, and the specific results are shown in Table 9-Table 12. […] Each sample was replicated three times. • e.

[2] = target: T1, rice OsHSL1 (SEQ ID NO: 1) mutant OsHSL1_F140H/L204F/F298L/I335A (Oryza sativa, UniProt A0A7G1K9G4, F140H/F298L/I335A/L204F); assay: as above; format: biochemical; conditions: compared with OsHSL1 wild type; close to the OsHIS1 wild type
T1 construct: isolated enzyme, HPLC assay
Description: as §1

[3] = system: Cc1ccccc1-n1c(=O)c2c(C)c(C(=O)C3=C(O)CCCC3=O)ccc2n(C)c1=O; assay: as above; format: biochemical, rice; conditions: other: pH 7.0, 30° C., about 20 min
Description: as §1

[4] = system: CS(=O)(=O)c1ccc(C(=O)C2C(=O)CCCC2=O)c([N+](=O)[O-])c1; assay: as above; format: biochemical, rice; conditions: other: pH 7.0, 30° C., about 20 min
Description: as §1

[5] = substrate: CS(=O)(=O)c1ccc(C(=O)C2C(=O)CCCC2=O)c([N+](=O)[O-])c1; assay: as above; format: biochemical, rice; conditions: other: pH 7.0, 30° C., about 20 min; remark: listed apart in the source
Description: as §1

[6] = substrate: Cc1ccccc1-n1c(=O)c2c(C)c(C(=O)C3=C(O)CCCC3=O)ccc2n(C)c1=O; assay: as above; format: biochemical, rice; conditions: other: pH 7.0, 30° C., about 20 min; remark: listed apart in the source
Description: as §1

[7] = format: biochemical; conditions: for Catalytic efficiency (%) topramezone: substrate topramezone 50 μM, 30° C., 10 h, protein 0.5 mg/mL
Protocol: (§2) Each sample was replicated three times. • e.
(§3) Control: refers to the addition of inhibitors to the reaction system, but not the addition of enzymes, which is regarded as the substrate surplus when the inhibitor is not catalyzed.
(§4) Sample: in the enzyme reaction system, the same volume and the same concentration (50 μM) of the inhibitor was added, and the catalytic efficiency of the enzyme to the inhibitor was observed.
(§5) Catalytic efficiency=(1−(peak area of substrate in sample)/(peak area of substrate in control))×100%.

[8] = Catalytic activity of HSL proteins on HPPD inhibitors (HPLC, substrate consumption); format: biochemical; conditions: 30° C., 10 h, protein 0.5 mg/mL; for Catalytic efficiency (%) Compound A: substrate Compound A 50 μM; for Catalytic efficiency (%) benzobicyclon technical: substrate benzobicyclon technical 50 μM; for Catalytic efficiency (%) Mesotrione: substrate mesotrione 50 μM; for Catalytic efficiency (%) methyl-benquitrione: substrate methyl-benquitrione 50 μM; for Catalytic efficiency (%) pyraquinate technical: substrate pyraquinate technical 50 μM; for Catalytic efficiency (%) tefuryltrione: substrate tefuryltrione 50 μM; for Catalytic efficiency (%) tembotrione: substrate tembotrione 50 μM
Protocol: as §2, §3, §4, §5

[9] = Enzyme kinetic parameter study (HPLC, Michaelis-Menten fit); format: biochemical; conditions: statement on Table 12
Description: as §1

T1 sequence (A0A7G1K9G4 entry or part of it F140H/L204F/F298L/I335A): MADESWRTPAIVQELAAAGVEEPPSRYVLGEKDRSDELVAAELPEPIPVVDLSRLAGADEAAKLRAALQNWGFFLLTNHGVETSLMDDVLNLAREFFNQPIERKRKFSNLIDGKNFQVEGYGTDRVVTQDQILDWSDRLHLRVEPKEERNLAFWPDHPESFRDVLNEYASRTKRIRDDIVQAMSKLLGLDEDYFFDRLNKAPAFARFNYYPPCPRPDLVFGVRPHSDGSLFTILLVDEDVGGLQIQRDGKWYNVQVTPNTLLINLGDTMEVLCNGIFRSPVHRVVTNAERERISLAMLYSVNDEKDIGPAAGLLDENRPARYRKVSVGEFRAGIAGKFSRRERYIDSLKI

Work on “rice OsHSL1 wild type, SEQ ID NO: 1 (Oryza sativa Japonica Group)” yielded a Km [1] of 44.0732 µM and a kcat [1] of 0.0011 s⁻¹.

“rice OsHSL1 (SEQ ID NO: 1) mutant OsHSL1_I335F (Oryza sativa Japonica Group; I335F)” gave a Km [1] of 48.4211 µM and a kcat [1] of 0.0057 s⁻¹.

With `CS(=O)(=O)c1ccc(C(=O)C2=C(Sc3ccccc3)C3CCC(C3)C2=O)c(Cl)c1` (stereo not drawn) [benzobicyclon technical, benzobicyclon] the “affinity and catalytic efficiency (in words)” value [2] was “better affinity and catalytic efficiency”.

For `CS(=O)(=O)c1ccc(C(=O)C2C(=O)CCCC2=O)c([N+](=O)[O-])c1` [mesotrione], the “affinity and catalytic efficiency (in words)” value [2] was “better affinity and catalytic efficiency”.

Molecule “rice OsHSL1 (SEQ ID NO: 1) mutant OsHSL1_F140H/L204F/F298L/I335A (Oryza sativa Japonica Group; F140H/F298L/I335A/L204F)” has a Km [3] of 22.6001 µM, a kcat [3] of 0.0106 s⁻¹ and a Km [4] of 23.4659 µM. It also gave a kcat [4] of 0.0083 s⁻¹.

B1: rice OsHIS1 wild type, SEQ ID NO: 2 (Oryza sativa Japonica Group) (protein)
chain: MADESWRAPAIVQELAAAGVEEPPSRYLLREKDRSDVKLVAAELPEPLPVVDLSRLDGAEEATKLRVALQNWGFFLLTNHGVEASLMDSVMNLSREFFNQPIERKQKFSNLIDGKNFQIQGYGTDRVVTQDQILDWSDRLHLRVEPKEEQDLAFWPDHPESFRDVLNKYASGTKRIRDDIIQAMAKLLELDEDYFLDRLNEAPAFARFNYYPPCPRPDLVFGIRPHSDGTLLTILLVDKDVSGLQVQRDGKWSNVEATPHTLLINLGDTMEVMCNGIFRSPVHRVVTNAEKERISLAMLYSVNDEKDIEPAAGLLDENRPARYRKVSVEEFRAGIFGKFSRGERYIDSLRI
notes: isolated enzyme, HPLC substrate-consumption assay with Fe(II), ascorbate and 2-oxoglutarate
B1 gave a Km [5] of 5.5811 µM, a kcat [5] of 0.05957 s⁻¹ and a Km [6] of 16.2456 µM. It also gave a kcat [6] of 0.0106 s⁻¹.

B2: rice OsHSL1 wild type, SEQ ID NO: 1 (Oryza sativa Japonica Group) (protein)
chain: MADESWRTPAIVQELAAAGVEEPPSRYVLGEKDRSDELVAAELPEPIPVVDLSRLAGADEAAKLRAALQNWGFFLLTNHGVETSLMDDVLNLAREFFNQPIERKRKFSNLIDGKNFQVEGYGTDRVVTQDQILDWSDRLFLRVEPKEERNLAFWPDHPESFRDVLNEYASRTKRIRDDIVQAMSKLLGLDEDYFFDRLNKAPALARFNYYPPCPRPDLVFGVRPHSDGSLFTILLVDEDVGGLQIQRDGKWYNVQVTPNTLLINLGDTMEVLCNGIFRSPVHRVVTNAERERISLAMFYSVNDEKDIGPAAGLLDENRPARYRKVSVGEFRAGIIGKFSRRERYIDSLKI
notes: as for B1
In the case of B2, the “Catalytic efficiency (%) topramezone” value [7] is reported as 100%, the “Catalytic efficiency (%) 30 min” value ([7]; topramezone degradation, reaction time 30 min) is reported as 79% and the “Catalytic efficiency (%) 60 min” value ([7]; topramezone degradation, reaction time 60 min) is reported as 86%. The “Catalytic efficiency (%) 120 min” value ([7]; topramezone degradation, reaction time 120 min) was 93%, the “Catalytic efficiency (%) 300 min” value ([7]; topramezone degradation, reaction time 300 min) was 98% and the “Catalytic efficiency (%) 600 min” value ([7]; topramezone degradation, reaction time 600 min) was 100%. The “Catalytic efficiency (%) Compound A” value [8] was 0%, the “Catalytic efficiency (%) benzobicyclon technical” value [8] was 46% and the “Catalytic efficiency (%) Mesotrione” value [8] was 40%. The “Catalytic efficiency (%) methyl-benquitrione” value [8] was 0%, the “Catalytic efficiency (%) pyraquinate technical” value [8] was 17% and the “Catalytic efficiency (%) tefuryltrione” value [8] was 100%. The “Catalytic efficiency (%) tembotrione” value [8] was 89%, the Km [5] was 27.6770 µM and the kcat [5] was 0.0002 s⁻¹.

B3: OsHSL1_L204F/F298L/I335F: SEQ ID NO.1 with L204 to phenylalanine, F298 to leucine, I335 to phenylalanine (protein, listed as Oryza sativa)
chain: MADESWRTPAIVQELAAAGVEEPPSRYVLGEKDRSDELVAAELPEPIPVVDLSRLAGADEAAKLRAALQNWGFFLLTNHGVETSLMDDVLNLAREFFNQPIERKRKFSNLIDGKNFQVEGYGTDRVVTQDQILDWSDRLFLRVEPKEERNLAFWPDHPESFRDVLNEYASRTKRIRDDIVQAMSKLLGLDEDYFFDRLNKAPAFARFNYYPPCPRPDLVFGVRPHSDGSLFTILLVDEDVGGLQIQRDGKWYNVQVTPNTLLINLGDTMEVLCNGIFRSPVHRVVTNAERERISLAMLYSVNDEKDIGPAAGLLDENRPARYRKVSVGEFRAGIFGKFSRRERYIDSLKI
In the case of B3, the “Catalytic efficiency (%) topramezone” value [7] is reported as 1%, the “Catalytic efficiency (%) Compound A” value [8] is reported as 47% and the “Catalytic efficiency (%) benzobicyclon technical” value [8] is reported as 100%. For the same molecule, the “Catalytic efficiency (%) Mesotrione” value [8] was 56%, the “Catalytic efficiency (%) methyl-benquitrione” value [8] was 35% and the “Catalytic efficiency (%) pyraquinate technical” value [8] was 52%. The “Catalytic efficiency (%) tefuryltrione” value [8] was 94% and the “Catalytic efficiency (%) tembotrione” value [8] was 0%.

B4: OsHSL1_F140H/L204F/F298L/I335W: SEQ ID NO.1 with F140 to histidine, L204 to phenylalanine, F298 to leucine, I335 to tryptophan (protein)
chain: MADESWRTPAIVQELAAAGVEEPPSRYVLGEKDRSDELVAAELPEPIPVVDLSRLAGADEAAKLRAALQNWGFFLLTNHGVETSLMDDVLNLAREFFNQPIERKRKFSNLIDGKNFQVEGYGTDRVVTQDQILDWSDRLHLRVEPKEERNLAFWPDHPESFRDVLNEYASRTKRIRDDIVQAMSKLLGLDEDYFFDRLNKAPAFARFNYYPPCPRPDLVFGVRPHSDGSLFTILLVDEDVGGLQIQRDGKWYNVQVTPNTLLINLGDTMEVLCNGIFRSPVHRVVTNAERERISLAMLYSVNDEKDIGPAAGLLDENRPARYRKVSVGEFRAGIWGKFSRRERYIDSLKI
For B4, the “Catalytic efficiency (%) topramezone” value [7] was 0%, the “Catalytic efficiency (%) Compound A” value [8] was 98% and the “Catalytic efficiency (%) benzobicyclon technical” value [8] was 100%. For the same molecule, the “Catalytic efficiency (%) Mesotrione” value [8] was 88%, the “Catalytic efficiency (%) methyl-benquitrione” value [8] was 90% and the “Catalytic efficiency (%) pyraquinate technical” value [8] was 17%. The “Catalytic efficiency (%) tefuryltrione” value [8] was 70% and the “Catalytic efficiency (%) tembotrione” value [8] was 55%.

B5: OsHSL1_L204F/F298L/I335A: three-point mutant OsHSL1_L204F/F298L/I335A containing I335; not listed in Table 2 (protein)
chain: MADESWRTPAIVQELAAAGVEEPPSRYVLGEKDRSDELVAAELPEPIPVVDLSRLAGADEAAKLRAALQNWGFFLLTNHGVETSLMDDVLNLAREFFNQPIERKRKFSNLIDGKNFQVEGYGTDRVVTQDQILDWSDRLFLRVEPKEERNLAFWPDHPESFRDVLNEYASRTKRIRDDIVQAMSKLLGLDEDYFFDRLNKAPAFARFNYYPPCPRPDLVFGVRPHSDGSLFTILLVDEDVGGLQIQRDGKWYNVQVTPNTLLINLGDTMEVLCNGIFRSPVHRVVTNAERERISLAMLYSVNDEKDIGPAAGLLDENRPARYRKVSVGEFRAGIAGKFSRRERYIDSLKI
With B5 the “affinity and catalytic efficiency to pyraquinate technical versus wild types (in words)” value [9] was “superior to that of OsHIS1 wild type and OsHSL1 wild type”.

B6: OsHSL1_F140H/L204F/I335F: SEQ ID NO.1 with F140 to histidine, L204 to phenylalanine, I335 to phenylalanine (protein)
chain: MADESWRTPAIVQELAAAGVEEPPSRYVLGEKDRSDELVAAELPEPIPVVDLSRLAGADEAAKLRAALQNWGFFLLTNHGVETSLMDDVLNLAREFFNQPIERKRKFSNLIDGKNFQVEGYGTDRVVTQDQILDWSDRLHLRVEPKEERNLAFWPDHPESFRDVLNEYASRTKRIRDDIVQAMSKLLGLDEDYFFDRLNKAPAFARFNYYPPCPRPDLVFGVRPHSDGSLFTILLVDEDVGGLQIQRDGKWYNVQVTPNTLLINLGDTMEVLCNGIFRSPVHRVVTNAERERISLAMFYSVNDEKDIGPAAGLLDENRPARYRKVSVGEFRAGIFGKFSRRERYIDSLKI
In the case of B6, the “Catalytic efficiency (%) topramezone” value [7] is reported as 40%, the “Catalytic efficiency (%) Compound A” value [8] is reported as 35% and the “Catalytic efficiency (%) benzobicyclon technical” value [8] is reported as 100%. For the same molecule, the “Catalytic efficiency (%) Mesotrione” value [8] was 89%, the “Catalytic efficiency (%) methyl-benquitrione” value [8] was 23% and the “Catalytic efficiency (%) pyraquinate technical” value [8] was 2%. The “Catalytic efficiency (%) tefuryltrione” value [8] was 100% and the “Catalytic efficiency (%) tembotrione” value [8] was 36%.
